The text below walks through data of US7138262.

The target in the test is T1, mannose receptor on mouse J774E macrophage cells (mouse) (UniProt Q61830).
T1 sequence (looked up): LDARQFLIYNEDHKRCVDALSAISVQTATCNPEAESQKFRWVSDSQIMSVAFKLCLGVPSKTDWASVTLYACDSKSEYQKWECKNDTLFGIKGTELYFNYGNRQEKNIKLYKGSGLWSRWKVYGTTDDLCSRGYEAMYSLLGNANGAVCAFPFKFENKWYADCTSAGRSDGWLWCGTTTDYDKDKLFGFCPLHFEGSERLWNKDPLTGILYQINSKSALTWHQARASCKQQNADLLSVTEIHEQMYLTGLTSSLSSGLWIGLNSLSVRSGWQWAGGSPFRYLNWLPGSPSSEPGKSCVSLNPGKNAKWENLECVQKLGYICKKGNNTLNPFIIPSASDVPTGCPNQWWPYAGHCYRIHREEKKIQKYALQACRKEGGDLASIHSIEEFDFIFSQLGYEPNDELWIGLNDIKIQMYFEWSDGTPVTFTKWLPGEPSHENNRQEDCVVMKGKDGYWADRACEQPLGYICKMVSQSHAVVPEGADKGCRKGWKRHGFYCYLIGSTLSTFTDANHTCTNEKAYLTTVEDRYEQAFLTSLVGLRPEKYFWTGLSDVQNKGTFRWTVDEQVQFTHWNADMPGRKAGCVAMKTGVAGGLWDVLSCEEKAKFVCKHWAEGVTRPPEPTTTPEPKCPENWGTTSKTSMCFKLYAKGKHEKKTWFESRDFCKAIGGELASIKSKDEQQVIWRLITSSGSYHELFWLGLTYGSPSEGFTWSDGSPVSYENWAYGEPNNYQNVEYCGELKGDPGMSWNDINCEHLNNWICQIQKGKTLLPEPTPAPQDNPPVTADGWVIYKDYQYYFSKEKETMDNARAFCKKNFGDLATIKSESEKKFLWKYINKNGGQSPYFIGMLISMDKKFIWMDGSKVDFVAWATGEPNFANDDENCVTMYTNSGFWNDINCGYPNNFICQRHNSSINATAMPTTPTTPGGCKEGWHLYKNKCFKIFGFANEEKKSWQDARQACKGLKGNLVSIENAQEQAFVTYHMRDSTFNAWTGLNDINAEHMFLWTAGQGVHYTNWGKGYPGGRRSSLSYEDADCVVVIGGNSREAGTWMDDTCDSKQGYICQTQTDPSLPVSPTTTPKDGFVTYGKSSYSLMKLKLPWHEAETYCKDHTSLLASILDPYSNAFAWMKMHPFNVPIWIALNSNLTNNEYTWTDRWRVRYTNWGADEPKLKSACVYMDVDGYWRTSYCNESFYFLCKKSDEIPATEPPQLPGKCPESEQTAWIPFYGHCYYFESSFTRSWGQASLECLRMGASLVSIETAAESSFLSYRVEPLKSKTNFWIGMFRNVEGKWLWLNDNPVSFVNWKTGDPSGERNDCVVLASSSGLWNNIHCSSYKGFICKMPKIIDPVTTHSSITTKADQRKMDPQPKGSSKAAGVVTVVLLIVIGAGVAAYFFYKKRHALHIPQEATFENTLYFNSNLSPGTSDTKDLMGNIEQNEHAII
The test can be described thus: cell-based or functional assay.

B1: Gene-Activated GCB (GA-GCB) from untreated HT-1080 cells (enzyme)
chain: ARPCIPKSFGYSSVVCVCNATYCDSFDPPTFPALGTFSRYESTRSGRRMELSMGPIQANHTGTGLLLTLQPEQKFQKVKGFGGAMTDAAALNILALSPPAQNLLLKSYFSEEGIGYNIIRVPMASCDFSIRTYTYADTPDDFQLHNFSLPEEDTKLKIPLIHRALQLAQRPVSLLASPWTSPTWLKTNGAVNGKGSLKGQPGDIYHQTWARYFVKFLDAYAEHKLQFWAVTAENEPSAGLLSGYPFQCLGFTPEHQRDFIARDLGPTLANSTHHNVRLLMLDDQRLLLPHWAKVVLTDPEAAKYVHGIAVHWYLDFLAPAKATLGETHRLFPNTMLFASEACVGSKFWEQSVRLGSWDRGMQYSHSIITNLLYHVVGWTDWNLALNPEGGPNWVRNFVDSPIIVDITKDTFYKQPMFYHLGHFSKFIPEGSQRVGLVASQKNDLDAVALMHPDGSAVVVVLNRSSKDVPLTIKDPAVGFLETISPGYSIHTYLWRRQ
modifications: N-linked glycans as processed by untreated HT-1080 cells (no mannosidase inhibitor)
Turning to B1, the Inhibition (%) of uptake into J774E cells by mannan stood at 53%; the Internalization into J774E cells in the presence of 2 µg/mL mannan: glucocerebrosidase activity (Units/mg cell lysate), absolute (Units/mg cell lysate) turned out to be 1680; the Internalization into J774E cells in the presence of 2 µg/mL mannan: glucocerebrosidase activity (Units/mg cell lysate), background corrected (Units/mg cell lysate) was 1020; the Internalization into J774E cells: glucocerebrosidase activity (Units/mg cell lysate), absolute (Units/mg cell lysate) was 2820. The molecule further yielded an Internalization into J774E cells: glucocerebrosidase activity (Units/mg cell lysate), background corrected (Units/mg cell lysate) of 2160 and an Uptake into J774E cells, fold over background of 3 fold.

B2: Gene-Activated GCB (GA-GCB) from HT-1080 cells treated with swainsonine (1 µg/mL) (enzyme)
chain: ARPCIPKSFGYSSVVCVCNATYCDSFDPPTFPALGTFSRYESTRSGRRMELSMGPIQANHTGTGLLLTLQPEQKFQKVKGFGGAMTDAAALNILALSPPAQNLLLKSYFSEEGIGYNIIRVPMASCDFSIRTYTYADTPDDFQLHNFSLPEEDTKLKIPLIHRALQLAQRPVSLLASPWTSPTWLKTNGAVNGKGSLKGQPGDIYHQTWARYFVKFLDAYAEHKLQFWAVTAENEPSAGLLSGYPFQCLGFTPEHQRDFIARDLGPTLANSTHHNVRLLMLDDQRLLLPHWAKVVLTDPEAAKYVHGIAVHWYLDFLAPAKATLGETHRLFPNTMLFASEACVGSKFWEQSVRLGSWDRGMQYSHSIITNLLYHVVGWTDWNLALNPEGGPNWVRNFVDSPIIVDITKDTFYKQPMFYHLGHFSKFIPEGSQRVGLVASQKNDLDAVALMHPDGSAVVVVLNRSSKDVPLTIKDPAVGFLETISPGYSIHTYLWRRQ
modifications: N-linked glycans not trimmed by Golgi mannosidase II (cells treated with the class 2 mannosidase inhibitor swainsonine, 1 µg/mL)
For B2, the Inhibition (%) of uptake into J774E cells by mannan stood at 67%; the Internalization into J774E cells in the presence of 2 µg/mL mannan: glucocerebrosidase activity (Units/mg cell lysate), absolute (Units/mg cell lysate) was determined as 2040; the Internalization into J774E cells in the presence of 2 µg/mL mannan: glucocerebrosidase activity (Units/mg cell lysate), background corrected (Units/mg cell lysate) worked out at 1380; the Internalization into J774E cells: glucocerebrosidase activity (Units/mg cell lysate), absolute (Units/mg cell lysate) was found to be 4790. For the same molecule, the Internalization into J774E cells: glucocerebrosidase activity (Units/mg cell lysate), background corrected (Units/mg cell lysate) amounted to 4130 and the Uptake into J774E cells, fold over background was found to be 7 fold.

B3: Gene-Activated GCB (GA-GCB) from HT-1080 cells treated with kifunensine (1 µg/mL) (enzyme)
chain: ARPCIPKSFGYSSVVCVCNATYCDSFDPPTFPALGTFSRYESTRSGRRMELSMGPIQANHTGTGLLLTLQPEQKFQKVKGFGGAMTDAAALNILALSPPAQNLLLKSYFSEEGIGYNIIRVPMASCDFSIRTYTYADTPDDFQLHNFSLPEEDTKLKIPLIHRALQLAQRPVSLLASPWTSPTWLKTNGAVNGKGSLKGQPGDIYHQTWARYFVKFLDAYAEHKLQFWAVTAENEPSAGLLSGYPFQCLGFTPEHQRDFIARDLGPTLANSTHHNVRLLMLDDQRLLLPHWAKVVLTDPEAAKYVHGIAVHWYLDFLAPAKATLGETHRLFPNTMLFASEACVGSKFWEQSVRLGSWDRGMQYSHSIITNLLYHVVGWTDWNLALNPEGGPNWVRNFVDSPIIVDITKDTFYKQPMFYHLGHFSKFIPEGSQRVGLVASQKNDLDAVALMHPDGSAVVVVLNRSSKDVPLTIKDPAVGFLETISPGYSIHTYLWRRQ
modifications: N-linked high mannose glycans (cells treated with the class 1 mannosidase inhibitor kifunensine, 1 µg/mL)
As for B3, the Inhibition (%) of uptake into J774E cells by mannan worked out at 73%; the Internalization into J774E cells in the presence of 2 µg/mL mannan: glucocerebrosidase activity (Units/mg cell lysate), absolute (Units/mg cell lysate) came to 2980; the Internalization into J774E cells in the presence of 2 µg/mL mannan: glucocerebrosidase activity (Units/mg cell lysate), background corrected (Units/mg cell lysate) stood at 2320; the Internalization into J774E cells: glucocerebrosidase activity (Units/mg cell lysate), absolute (Units/mg cell lysate) is 9180. In addition, the Internalization into J774E cells: glucocerebrosidase activity (Units/mg cell lysate), background corrected (Units/mg cell lysate) is 8530; the Uptake into J774E cells relative to GA-GCB from swainsonine treated cells stood at 2 fold; the Uptake into J774E cells, fold over background is 14 fold.
